The results in this text go back to patent US20240059789A1 (Janssen / Centocor, published 2024).

Where a chain is given by its changes, count along the chain named.

To fix the notation:
T1: Avi-6xHis-GS-cyno PSMA ECD (PSMW1) (Macaca fascicularis, UniProt Q04609 48-750 (human entry))
T1 construct: also called PSMW1.009; cy PSMA
T1 chain: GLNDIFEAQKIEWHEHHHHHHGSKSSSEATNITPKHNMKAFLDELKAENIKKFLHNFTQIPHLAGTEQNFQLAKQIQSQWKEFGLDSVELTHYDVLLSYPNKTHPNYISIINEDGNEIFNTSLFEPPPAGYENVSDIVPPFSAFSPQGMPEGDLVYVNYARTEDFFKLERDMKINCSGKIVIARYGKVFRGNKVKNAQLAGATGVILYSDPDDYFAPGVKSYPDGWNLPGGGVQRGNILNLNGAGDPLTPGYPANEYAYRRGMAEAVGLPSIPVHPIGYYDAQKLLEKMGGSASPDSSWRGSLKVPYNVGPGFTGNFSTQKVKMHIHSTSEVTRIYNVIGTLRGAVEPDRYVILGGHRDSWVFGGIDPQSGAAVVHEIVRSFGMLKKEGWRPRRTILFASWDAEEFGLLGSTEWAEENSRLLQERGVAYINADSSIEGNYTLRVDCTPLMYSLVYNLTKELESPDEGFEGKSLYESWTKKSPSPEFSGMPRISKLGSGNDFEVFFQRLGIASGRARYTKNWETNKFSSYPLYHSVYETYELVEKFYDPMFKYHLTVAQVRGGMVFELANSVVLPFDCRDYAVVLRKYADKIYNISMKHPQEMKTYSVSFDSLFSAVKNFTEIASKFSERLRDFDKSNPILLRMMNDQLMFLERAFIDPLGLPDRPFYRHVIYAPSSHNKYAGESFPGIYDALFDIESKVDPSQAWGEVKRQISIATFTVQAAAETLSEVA

B1: PSMB895 (antibody, human IgG1, lambda, L234A L235A, V domains shown)
VH: EVQLVESGGGLVQPGGSLRLSCAASGFTFSSYAMSWVRQAPGKGLEWVSAISGGIGSTYYADSVKGRFTISRDNSKNTLWLQMNSLRAEDTAVYYCAKDGVGATPYYFDYWGQGTLVTVSS
VL: QSVLTQPPSVSAAPGQKVTISCSGSSSNIGNNYVSWYQQLPGTAPKLLIYDNNKRPSGIPDRFSGSKSGTSATLGITGLQTGDEADYYCGTWDSSLSAYVFGTGTKVTVLG
B2: PSMB897 (antibody, human IgG1, lambda, L234A L235A, V domains shown)
VH: B1 VH with I55S, W80Y, T91S
VL: B1 VL
B3: PSMB898 (antibody, human IgG1, lambda, L234A L235A, V domains shown)
VH: B1 VH with I55S, W80Y, T91S
VL: B1 VL with N31I, Y99V, T103G, V107L
B4: PSMB890 (antibody, human IgG1, lambda, L234A L235A, V domains shown)
VH: EVQLVESGGGLVKPGGSLRLSCAASGFTFSRYNMNWVRQAPGKGLEWVSSINSNSRYIYYADSVKGRFTISRDSAKNSLYLQMNSLRAEDTAVYYCAKTMGDYYYYYGMDVWGQGTTVTVSS
VL: SSELTQPPSVSGAPGQRVTISCAGSLSNIGAGYDVHWYQQLPGTAPKLLIYGNINRLSGVPERFSGSKSGTSASLAITGLQAEDGADYYCQSYDSSLSSYVFGTGTKVTVLG
B5: PS3B932 (bispecific antibody, human IgG1, kappa, lambda, L234A L235A)
heavy 1: EVQLVESGGGLVKPGGSLRLSCAASGFTFSRYNMNWVRQAPGKGLEWVSSISTSSNYIYYADSVKGRFTFSRDNAKNSLDLQMSGLRAEDTAIYYCTRGWGPFDYWGQGTLVTVSSASTKGPSVFPLAPSSKSTSGGTAALGCLVKDYFPEPVTVSWNSGALTSGVHTFPAVLQSSGLYSLSSVVTVPSSSLGTQTYICNVNHKPSNTKVDKKVEPKSCDKTHTCPPCPAPEAAGGPSVFLFPPKPKDTLMISRTPEVTCVVVSVSHEDPEVKFNWYVDGVEVHNAKTKPREEQYNSTYRVVSVLTVLHQDWLNGKEYKCKVSNKALPAPIEKTISKAKGQPREPQVYTLPPSREEMTKNQVSLTCLVKGFYPSDIAVEWESNGQPENNYKTTPPVLDSDGSFLLYSKLTVDKSRWQQGNVFSCSVMHEALHNHYTQKSLSLSP
light 1: DIQMTQSPSSLSASVGDRVTITCRARQSIGTAIHWYQQKPGKAPKLLIKYASESISGVPSRFSGSGSGTDFTLTISSLQPEDFATYYCQQSGSWPYTFGQGTKLEIKRTVAAPSVFIFPPSDEQLKSGTASVVCLLNNFYPREAKVQWKVDNALQSGNSQESVTEQDSKDSTYSLSSTLTLSKADYEKHKVYACEVTHQGLSSPVTKSFNRGEC
heavy 2: EVQLVESGGGLVQPGGSLRLSCAASGFTFSSYAMSWVRQAPGKGLEWVSAISGGIGSTYYADSVKGRFTISRDNSKNTLWLQMNSLRAEDTAVYYCAKDGVGATPYYFDYWGQGTLVTVSSASTKGPSVFPLAPSSKSTSGGTAALGCLVKDYFPEPVTVSWNSGALTSGVHTFPAVLQSSGLYSLSSVVTVPSSSLGTQTYICNVNHKPSNTKVDKKVEPKSCDKTHTCPPCPAPEAAGGPSVFLFPPKPKDTLMISRTPEVTCVVVSVSHEDPEVKFNWYVDGVEVHNAKTKPREEQYNSTYRVVSVLTVLHQDWLNGKEYKCKVSNKALPAPIEKTISKAKGQPREPQVYTLPPSREEMTKNQVSLTCLVKGFYPSDIAVEWESNGQPENNYKTTPPVLDSDGSFFLYSRLTVDKSRWQQGNVFSCSVMHEALHNHYTQKSLSLSPG
light 2: QSVLTQPPSVSAAPGQKVTISCSGSSSNIGNNYVSWYQQLPGTAPKLLIYDNNKRPSGIPDRFSGSKSGTSATLGITGLQTGDEADYYCGTWDSSLSAYVFGTGTKVTVLGQPKAAPSVTLFPPSSEELQANKATLVCLISDFYPGAVTVAWKADSSPVKAGVETTTPSKQSNNKYAASSYLSLTPEQWKSHRSYSCQVTHEGSTVEKTVAPTECS
B6: PS3B933 (bispecific antibody, human IgG1, kappa, lambda, L234A L235A)
heavy 1: B5 heavy 1
light 1: B5 light 1
heavy 2: B5 heavy 2 with I55S, W80Y, T91S
light 2: B5 light 2
B7: PS3B934 (bispecific antibody, human IgG1, kappa, lambda, L234A L235A)
heavy 1: B5 heavy 1
light 1: B5 light 1
heavy 2: B5 heavy 2
light 2: B5 light 2 with N31I, Y99V, T103G, V107L
B8: PS3B935 (bispecific antibody, human IgG1, kappa, lambda, L234A L235A)
heavy 1: B5 heavy 1
light 1: B5 light 1
heavy 2: B5 heavy 2 with I55S, W80Y, T91S
light 2: B5 light 2 with N31I, Y99V, T103G, V107L
B9: PS3B925 (bispecific antibody, human IgG1, kappa, lambda, L234A L235A)
heavy 1: B5 heavy 1
light 1: B5 light 1
heavy 2: B5 heavy 2 with A23T, T28I, I55Y, S57A, T58P, S63T, W80Y, Y110D, T115I
light 2: B5 light 2 with Y50F
B10: PS3B913 (bispecific antibody, human IgG1, lambda, L234A L235A)
heavy 1: QVQLQQSGPRLVRPSQTLSLTCAISGDSVFNNNAAWSWIRQSPSRGLEWLGRTYYRSKWLYDYAVSVKSRITVNPDTSRNQFTLQLNSVTPEDTALYYCARGYSSSFDYWGQGTLVTVSSASTKGPSVFPLAPSSKSTSGGTAALGCLVKDYFPEPVTVSWNSGALTSGVHTFPAVLQSSGLYSLSSVVTVPSSSLGTQTYICNVNHKPSNTKVDKKVEPKSCDKTHTCPPCPAPEAAGGPSVFLFPPKPKDTLMISRTPEVTCVVVSVSHEDPEVKFNWYVDGVEVHNAKTKPREEQYNSTYRVVSVLTVLHQDWLNGKEYKCKVSNKALPAPIEKTISKAKGQPREPQVYTLPPSREEMTKNQVSLTCLVKGFYPSDIAVEWESNGQPENNYKTTPPVLDSDGSFLLYSKLTVDKSRWQQGNVFSCSVMHEALHNHYTQKSLSLSPG
light 1: QSALTQPASVSGSPGQSITISCTGTSSNIGTYKFVSWYQQHPDKAPKVLLYEVSKRPSGVSSRFSGSKSGNTASLTISGLQAEDQADYHCVSYAGSGTLLFGGGTKLTVLGQPKAAPSVTLFPPSSEELQANKATLVCLISDFYPGAVTVAWKADSSPVKAGVETTTPSKQSNNKYAASSYLSLTPEQWKSHRSYSCQVTHEGSTVEKTVAPTECS
heavy 2: not shown
light 2: not shown
B11: PS3B915 (bispecific antibody, human IgG1, lambda, L234A L235A)
heavy 1: B10 heavy 1
light 1: B10 light 1
heavy 2: not shown
light 2: not shown

T3 sequence (Q04609 whole entry): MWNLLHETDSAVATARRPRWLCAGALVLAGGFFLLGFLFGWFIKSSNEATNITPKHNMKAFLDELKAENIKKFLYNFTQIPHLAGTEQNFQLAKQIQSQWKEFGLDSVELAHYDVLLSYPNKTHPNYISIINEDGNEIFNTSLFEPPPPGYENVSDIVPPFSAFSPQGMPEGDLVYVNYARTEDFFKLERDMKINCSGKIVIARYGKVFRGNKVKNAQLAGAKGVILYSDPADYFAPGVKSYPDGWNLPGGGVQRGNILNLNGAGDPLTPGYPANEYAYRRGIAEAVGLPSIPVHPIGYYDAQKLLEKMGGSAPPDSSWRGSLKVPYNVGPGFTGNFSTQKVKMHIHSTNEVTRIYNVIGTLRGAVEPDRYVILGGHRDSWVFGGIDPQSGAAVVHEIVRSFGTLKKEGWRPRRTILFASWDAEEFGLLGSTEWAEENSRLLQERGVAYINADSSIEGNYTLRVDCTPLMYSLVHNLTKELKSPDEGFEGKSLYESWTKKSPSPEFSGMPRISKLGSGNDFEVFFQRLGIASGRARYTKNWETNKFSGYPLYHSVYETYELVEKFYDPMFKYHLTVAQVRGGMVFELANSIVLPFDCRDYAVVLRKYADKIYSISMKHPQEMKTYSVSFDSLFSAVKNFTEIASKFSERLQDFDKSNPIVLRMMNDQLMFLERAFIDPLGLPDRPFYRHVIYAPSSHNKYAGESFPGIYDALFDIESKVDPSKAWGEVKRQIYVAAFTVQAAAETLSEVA

The target of one experiment is T2, Human PSMA ECD (Lys44-Ala750), N-6xHis (PSMW39) (human, UniProt Q04609 44-750).
T2 construct: also called PSMW39.002; hu PSMA
T2 sequence (Q04609 other isoform, or with tags, fused parts or gaps): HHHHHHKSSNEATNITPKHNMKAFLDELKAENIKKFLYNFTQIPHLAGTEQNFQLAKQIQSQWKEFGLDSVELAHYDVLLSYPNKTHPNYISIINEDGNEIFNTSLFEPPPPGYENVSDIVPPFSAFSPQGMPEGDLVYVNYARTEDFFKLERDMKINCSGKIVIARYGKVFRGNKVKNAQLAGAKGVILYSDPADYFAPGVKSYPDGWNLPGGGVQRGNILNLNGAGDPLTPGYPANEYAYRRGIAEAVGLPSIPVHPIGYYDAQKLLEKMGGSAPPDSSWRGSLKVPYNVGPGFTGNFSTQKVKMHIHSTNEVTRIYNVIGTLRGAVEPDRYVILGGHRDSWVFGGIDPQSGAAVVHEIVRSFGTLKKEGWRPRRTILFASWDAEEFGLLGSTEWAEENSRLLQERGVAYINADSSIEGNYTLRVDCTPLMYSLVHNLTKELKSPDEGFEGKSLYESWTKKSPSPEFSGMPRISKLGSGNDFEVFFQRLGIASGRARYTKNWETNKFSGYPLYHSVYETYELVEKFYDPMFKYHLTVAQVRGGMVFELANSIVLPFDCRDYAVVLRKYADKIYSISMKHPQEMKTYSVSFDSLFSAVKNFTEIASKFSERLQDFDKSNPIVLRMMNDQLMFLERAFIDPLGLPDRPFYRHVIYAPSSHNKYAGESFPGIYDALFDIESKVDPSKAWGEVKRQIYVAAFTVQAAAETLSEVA
Briefly: SPR Biacore 8K, mAb captured by anti-Fc, antigen in solution. The method, then: (§1) The association and dissociation were monitored for 3 and 15 minutes, respectively, using a flow rate of 50 μL/min. Raw binding data was referenced by subtracting the analyte binding signals from blanks and analyzed using a 1:1 Langmuir binding model using the Biacore Insight evaluation software to obtain the kinetics, which were used to calculate the binding affinity. The anti-PSMA were captured using an anti-human Fc antibody and the antigens were injected in solution.
One may read the Kd as the equilibrium constant for the complex coming apart. Low readings indicate a tighter complex, high ones a looser complex. As for B1, the affinity, expressed as Kd, was 704 pM.

The molecule B2 showed a Kd of 1280 pM.

In the case of B3, the Kd stood at 333 pM.

Another experiment has as its target T1, Avi-6xHis-GS-cyno PSMA ECD (PSMW1). The experiment is described as above. As for the experimental part: as §1
In turn, B1 had an equilibrium dissociation constant (Kd) of 2830 pM.

B2 had a Kd of 3930 pM.

As to B3, the Kd was found to be 1190 pM.

A further experiment has as its target T3, Human PSMA on prostate cancer cell lines (C4-2B, 22RV1) (human, UniProt Q04609 1-750).
T3 construct: Endogenous PSMA of the human cell lines; also called PSMA+ cells; PSMA-expressing cell lines
Briefly: flow cytometry on 22RV1 cells. The method, then:
(§2) Selected anti-PSMA antibodies were evaluated for binding to commercial prostate cancer cell lines. C4-2B cells were originally developed at MD Anderson and are derived from LNCaP FGC grown in vivo and metastasize to bone marrow (Thalmann, et al 1994, Cancer Research 54, 2577-81). 22Rv1 cells are a human prostate carcinoma epithelial cell line derived from a xenograft that was serially propagated in mice after castration-induced regression and relapse of the parental, androgen-dependent CWR22 xenograft. 22RV1 and C4-2B cells were plated at 50,000 cells per well in 50 μl of assay medium (RPMI, 10% HI FBS) in V bottom plates. Serial dilutions of antibodies were prepared in assay medium with 50 μl of antibody dilutions added to the plates containing cells. The plates were incubated for 60 min at 37° C. at which time 100 μl of staining buffer (Becton Dickinson Cat #554657) was added to all wells of each plate. The plates were centrifuged at 300×G for 5 minutes and the medium was removed from the wells. 200 μl of staining buffer was added to all wells of each plate. The plates were centrifuged at 300×G for 5 minutes and the medium was removed from the wells. 50 μl of 2 μg/ml AlexaFluor647-labeled goat anti-human Fc was added to all wells of the plates and the plates were incubated for 30 minutes at 4° C. 150 μl of staining buffer was added to all wells of each plate. The plates were centrifuged at 300×G for 5 minutes and the medium was removed from the wells.
For orientation: A flow cytometer gives signals particle by particle.
What is called EC50 is the concentration giving half of the maximal effect. A high value points to a need for much substance. As to B1, it took 1710 pM to reach a half-maximal effect (EC50).

Turning to B2, the response was half-maximal at 2260 pM (EC50).

With B3, the EC50 was 2070 pM.

Turning to B4, the concentration giving a half-maximal response (EC50) came out at 1710 pM.

The next experiment deals with T3, Human PSMA on prostate cancer cell …. In words: flow cytometry on C4-2B cells. The method, then: as §2
B1: the EC50 came to 5090 pM.

B2 showed a concentration for a half-maximal effect (EC50) of 4760 pM.

As for B3, it took 6530 pM to reach a half-maximal effect (EC50).

Consider B4, for which the EC50 is 941 pM.

The next experiment shares this target. Briefly: cell-based or functional assay.
Consider B5, for which the “Tumor killing EC50 [M] (C4-2B + PAN-T cells, 72 h, flow cytometry)” value (shortened to “Tumor killing EC50 [M]”) stood at 6.42e-12 M.

Turning to B6, the “Tumor killing EC50 [M]” value turned out to be 4.76e-11 M.

Turning to B7, the “Tumor killing EC50 [M]” value worked out at 7.24e-12 M.

Consider B8, for which the “Tumor killing EC50 [M]” value was determined as 7.16e-12 M.

As for B9, the “Tumor killing EC50 [M]” value was determined as 7.98e-12 M.

B10: the “Tumor killing EC50 [M]” value is 3.11e-10 M.

As for B11, the “Tumor killing EC50 [M]” value is 1e-08 M.

The next experiment deals with Human CD3 on T cells / Jurkat cells (human, UniProt P07766 23-207). Briefly: cell-based or functional assay.
Sequence of Human CD3 on T cells / Jurkat cells (P07766 23-207 limits assumed): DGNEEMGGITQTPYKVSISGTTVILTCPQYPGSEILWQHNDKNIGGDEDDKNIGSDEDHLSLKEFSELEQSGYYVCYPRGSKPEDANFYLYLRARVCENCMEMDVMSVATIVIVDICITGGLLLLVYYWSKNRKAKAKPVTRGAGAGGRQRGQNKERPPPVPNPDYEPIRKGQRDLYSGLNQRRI
Consider B5, for which the “T cell activation EC50 [M] (CD25+ T cells, C4-2B co-culture, 72 h)” value (“T cell activation EC50 [M]” below) came out at 1.2e-11 M.

On to B6, for which the “T cell activation EC50 [M]” value is 6.01e-11 M.

B7: the “T cell activation EC50 [M]” value is 4.81e-12 M.

On to B8, for which the “T cell activation EC50 [M]” value turned out to be 6.72e-12 M.

With B9, the “T cell activation EC50 [M]” value worked out at 4.59e-12 M.

Regarding B10, the “T cell activation EC50 [M]” value came out at 1.55e-10 M.

In the case of B11, the “T cell activation EC50 [M]” value came out at 1e-08 M.
